Blank lines part the entries; values can stand above or below the substance they belong to.
Tests used:
[1] = biological target: glial cell line derived neurotrophic factor (GDNF), R&D Systems 212-GD-010 (UniProt P39905); test: SPR (Biacore T200), 1:1 global fit
[2] = biological target: glial cell line derived neurotrophic factor (GDNF), R&D Systems 212-GD-010 (UniProt P39905); test: t-PLA, buffer; GDNF 1.00E-12 M
[3] = biological target: glial cell line derived neurotrophic factor (GDNF), R&D Systems 212-GD-010 (UniProt P39905); test: BLI (Octet RED), antibody on protein G sensors, 1:1 global fit
[4] = biological target: glial cell line derived neurotrophic factor (GDNF), R&D Systems 212-GD-010 (UniProt P39905); test: c-PLA, buffer; GDNF 1.00E-11 M
[5] = biological target: glial cell line derived neurotrophic factor (GDNF), R&D Systems 212-GD-010 (UniProt P39905); test: SPR, value from the software's off-rate, beyond the sensitivity range of the instrument
[6] = biological target: glial cell line derived neurotrophic factor (GDNF), R&D Systems 212-GD-010 (UniProt P39905); test: c-PLA, buffer; GDNF 1.00E-14 M
[7] = biological target: glial cell line derived neurotrophic factor (GDNF), R&D Systems 212-GD-010 (UniProt P39905); test: t-PLA, buffer; GDNF 1.00E-08 M
[8] = biological target: glial cell line derived neurotrophic factor (GDNF), R&D Systems 212-GD-010 (UniProt P39905); test: c-PLA, buffer; GDNF 1.00E-12 M
[9] = biological target: glial cell line derived neurotrophic factor (GDNF), R&D Systems 212-GD-010 (UniProt P39905); test: t-PLA, buffer; GDNF 1.00E-13 M
[10] = biological target: glial cell line derived neurotrophic factor (GDNF), R&D Systems 212-GD-010 (UniProt P39905); test: c-PLA, buffer; GDNF 1.00E-13 M
[11] = biological target: glial cell line derived neurotrophic factor (GDNF), R&D Systems 212-GD-010 (UniProt P39905); test: t-PLA, buffer; GDNF 1.00E-10 M
[12] = biological target: glial cell line derived neurotrophic factor (GDNF), R&D Systems 212-GD-010 (UniProt P39905); test: SPR (Biacore T200), biotinylated antibody on CAP chip, 1:1 fit
[13] = biological target: glial cell line derived neurotrophic factor (GDNF), R&D Systems 212-GD-010 (UniProt P39905); test: c-PLA, buffer; GDNF 1.00E-08 M
[14] = biological target: glial cell line derived neurotrophic factor (GDNF), R&D Systems 212-GD-010 (UniProt P39905); test: c-PLA, buffer; GDNF 1.00E-09 M
[15] = biological target: glial cell line derived neurotrophic factor (GDNF), R&D Systems 212-GD-010 (UniProt P39905); test: t-PLA, buffer; GDNF 1.00E-14 M
[16] = biological target: glial cell line derived neurotrophic factor (GDNF), R&D Systems 212-GD-010 (UniProt P39905); test: SPR, off-rate given by the software, beyond the sensitivity range of the instrument
[17] = biological target: glial cell line derived neurotrophic factor (GDNF), R&D Systems 212-GD-010 (UniProt P39905); test: SPR, isoaffinity graph
[18] = biological target: glial cell line derived neurotrophic factor (GDNF), R&D Systems 212-GD-010 (UniProt P39905); test: c-PLA, buffer; GDNF 1.00E-10 M
[19] = biological target: glial cell line derived neurotrophic factor (GDNF), R&D Systems 212-GD-010 (UniProt P39905); test: t-PLA, buffer; GDNF 1.00E-09 M
[20] = biological target: glial cell line derived neurotrophic factor (GDNF), R&D Systems 212-GD-010 (UniProt P39905); test: t-PLA, buffer; GDNF 1.00E-11 M
[21] = biological target: insulin-like growth factor II (IGF-II), R&D Systems 292-G2-050 (UniProt P01344); test: SPR (Biacore T200), 1:1 global fit
[22] = biological target: insulin-like growth factor II (IGF-II), R&D Systems 292-G2-050 (UniProt P01344); test: BLI (Octet RED), antibody on protein G sensors, 1:1 global fit
[23] = biological target: insulin-like growth factor II (IGF-II), R&D Systems 292-G2-050 (UniProt P01344); test: c-PLA, buffer; IGF-II 1.00E-11 M
[24] = biological target: insulin-like growth factor II (IGF-II), R&D Systems 292-G2-050 (UniProt P01344); test: c-PLA, buffer; IGF-II 1.00E-06 M
[25] = biological target: insulin-like growth factor II (IGF-II), R&D Systems 292-G2-050 (UniProt P01344); test: t-PLA, buffer; IGF-II 1.00E-10 M
[26] = biological target: insulin-like growth factor II (IGF-II), R&D Systems 292-G2-050 (UniProt P01344); test: t-PLA, buffer; IGF-II 1.00E-08 M
[27] = biological target: insulin-like growth factor II (IGF-II), R&D Systems 292-G2-050 (UniProt P01344); test: t-PLA, buffer; IGF-II 1.00E-11 M
[28] = biological target: insulin-like growth factor II (IGF-II), R&D Systems 292-G2-050 (UniProt P01344); test: SPR (Biacore T200), biotinylated antibody on CAP chip, 1:1 fit
[29] = biological target: insulin-like growth factor II (IGF-II), R&D Systems 292-G2-050 (UniProt P01344); test: t-PLA, buffer; IGF-II 1.00E-06 M
[30] = biological target: insulin-like growth factor II (IGF-II), R&D Systems 292-G2-050 (UniProt P01344); test: t-PLA, buffer; IGF-II 1.00E-07 M
[31] = biological target: insulin-like growth factor II (IGF-II), R&D Systems 292-G2-050 (UniProt P01344); test: t-PLA, buffer; IGF-II 1.00E-09 M
[32] = biological target: insulin-like growth factor II (IGF-II), R&D Systems 292-G2-050 (UniProt P01344); test: c-PLA, buffer; IGF-II 1.00E-08 M
[33] = biological target: insulin-like growth factor II (IGF-II), R&D Systems 292-G2-050 (UniProt P01344); test: SPR, isoaffinity graph
[34] = biological target: insulin-like growth factor II (IGF-II), R&D Systems 292-G2-050 (UniProt P01344); test: c-PLA, buffer; IGF-II 1.00E-09 M
[35] = biological target: insulin-like growth factor II (IGF-II), R&D Systems 292-G2-050 (UniProt P01344); test: c-PLA, buffer; IGF-II 1.00E-07 M
[36] = biological target: insulin-like growth factor II (IGF-II), R&D Systems 292-G2-050 (UniProt P01344); test: c-PLA, buffer; IGF-II 1.00E-10 M
[37] = biological target: macrophage migration inhibitory factor (MIF), R&D Systems 289-MF-002 (UniProt P14174); test: SPR (Biacore T200), 1:1 global fit
[38] = biological target: macrophage migration inhibitory factor (MIF), R&D Systems 289-MF-002 (UniProt P14174); test: BLI (Octet RED), antibody on protein G sensors, 1:1 global fit
[39] = biological target: macrophage migration inhibitory factor (MIF), R&D Systems 289-MF-002 (UniProt P14174); test: c-PLA, buffer; MIF 1.00E-10 M
[40] = biological target: macrophage migration inhibitory factor (MIF), R&D Systems 289-MF-002 (UniProt P14174); test: t-PLA, buffer; MIF 1.00E-11 M
[41] = biological target: macrophage migration inhibitory factor (MIF), R&D Systems 289-MF-002 (UniProt P14174); test: t-PLA, buffer; MIF 1.00E-08 M
[42] = biological target: macrophage migration inhibitory factor (MIF), R&D Systems 289-MF-002 (UniProt P14174); test: SPR (Biacore T200), biotinylated antibody on CAP chip, 1:1 fit
[43] = biological target: macrophage migration inhibitory factor (MIF), R&D Systems 289-MF-002 (UniProt P14174); test: c-PLA, buffer; MIF 1.00E-09 M
[44] = biological target: macrophage migration inhibitory factor (MIF), R&D Systems 289-MF-002 (UniProt P14174); test: t-PLA, buffer; MIF 1.00E-07 M
[45] = biological target: macrophage migration inhibitory factor (MIF), R&D Systems 289-MF-002 (UniProt P14174); test: c-PLA, buffer; MIF 3.00E-07 M
[46] = biological target: macrophage migration inhibitory factor (MIF), R&D Systems 289-MF-002 (UniProt P14174); test: c-PLA, buffer; MIF 1.00E-08 M
[47] = biological target: macrophage migration inhibitory factor (MIF), R&D Systems 289-MF-002 (UniProt P14174); test: c-PLA, buffer; MIF 1.00E-07 M
[48] = biological target: macrophage migration inhibitory factor (MIF), R&D Systems 289-MF-002 (UniProt P14174); test: t-PLA, buffer; MIF 1.00E-09 M
[49] = biological target: macrophage migration inhibitory factor (MIF), R&D Systems 289-MF-002 (UniProt P14174); test: SPR, isoaffinity graph
[50] = biological target: macrophage migration inhibitory factor (MIF), R&D Systems 289-MF-002 (UniProt P14174); test: t-PLA, buffer; MIF 3.00E-07 M
[51] = biological target: macrophage migration inhibitory factor (MIF), R&D Systems 289-MF-002 (UniProt P14174); test: c-PLA, buffer; MIF 1.00E-11 M
[52] = biological target: macrophage migration inhibitory factor (MIF), R&D Systems 289-MF-002 (UniProt P14174); test: t-PLA, buffer; MIF 1.00E-10 M

Chain of UniProt P01344 (P01344 25-91 limits assumed): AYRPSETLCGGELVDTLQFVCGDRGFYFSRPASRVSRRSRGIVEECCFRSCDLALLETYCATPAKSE
Chain of UniProt P14174 (P14174 whole entry): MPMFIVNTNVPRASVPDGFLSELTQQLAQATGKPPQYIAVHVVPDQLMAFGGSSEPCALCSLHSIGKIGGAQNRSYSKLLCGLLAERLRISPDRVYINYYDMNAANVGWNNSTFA
Chain of UniProt P39905 (P39905 78-211 limits assumed): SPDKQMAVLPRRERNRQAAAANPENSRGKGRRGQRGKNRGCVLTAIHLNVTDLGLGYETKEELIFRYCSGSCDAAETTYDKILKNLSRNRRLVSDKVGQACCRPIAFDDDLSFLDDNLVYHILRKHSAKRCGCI

Kd [1]: < 0.00071 nM
koff [1]: < 1e-05 s⁻¹
kon [1]: 1.35e+07 M⁻¹ s⁻¹
Counts [2]: 6.17e+06
SBR [2]: 9.1
Kd [3]: < 0.00254 nM
koff [3]: < 1e-06 s⁻¹
kon [3]: 393000 M⁻¹ s⁻¹
Counts [4]: 3340
SBR [4]: 221
Kd [5]: 0.000173 nM
Counts [6]: 17
SBR [6]: 1.1
Counts [7]: 1.02e+09
SBR [7]: 1520
Counts [8]: 283
SBR [8]: 19
Counts [9]: 7.19e+06
SBR [9]: 11
Counts [10]: 172
SBR [10]: 11
Counts [11]: 6.04e+08
SBR [11]: 896
Kd [12]: < 0.00071 nM
koff [12]: < 1e-05 s⁻¹
kon [12]: 1.4e+07 M⁻¹ s⁻¹
Counts [13]: 214000
SBR [13]: 14200
Counts [14]: 427000
SBR [14]: 28300
Counts [15]: 1.92e+06
SBR [15]: 2.8
koff [16]: 2.34e-06 s⁻¹
Kd [17]: < 0.005 nM
Counts [18]: 59400
SBR [18]: 3930
Counts [19]: 2.24e+09
SBR [19]: 3320
Counts [20]: 6.06e+07
SBR [20]: 90
Substance: affinity-purified polyclonal anti-GDNF antibody (R&D Systems AF-212-NA)

Kd [21]: 0.0511 nM
koff [21]: 2.49e-05 s⁻¹
kon [21]: 486000 M⁻¹ s⁻¹
Kd [22]: 1.17 nM
koff [22]: 0.000321 s⁻¹
kon [22]: 274000 M⁻¹ s⁻¹
Counts [23]: 171
SBR [23]: 0.8
Counts [24]: 49700
SBR [24]: 227
Counts [25]: 145000
SBR [25]: 0.2
Counts [26]: 1.75e+07
SBR [26]: 24
Counts [27]: 400000
SBR [27]: 0.5
Kd [28]: 0.051 nM
koff [28]: 2.5e-05 s⁻¹
kon [28]: 490000 M⁻¹ s⁻¹
Counts [29]: 4.77e+07
SBR [29]: 65
Counts [30]: 5.89e+07
SBR [30]: 81
Counts [31]: 641000
SBR [31]: 0.9
Counts [32]: 12200
SBR [32]: 56
Kd [33]: > 0.05 nM
Counts [34]: 527
SBR [34]: 2.4
Counts [35]: 50300
SBR [35]: 230
Counts [36]: 215
SBR [36]: 1
Substance: affinity-purified polyclonal anti-IGF-II antibody (R&D Systems AF-292-NA)

Kd [37]: 0.0826 nM
koff [37]: 9.41e-05 s⁻¹
kon [37]: 1.14e+06 M⁻¹ s⁻¹
Kd [38]: 1.75 nM
koff [38]: 0.000532 s⁻¹
kon [38]: 304000 M⁻¹ s⁻¹
Counts [39]: 1020
SBR [39]: 60
Counts [40]: 681000
SBR [40]: 0.4
Counts [41]: 3.97e+07
SBR [41]: 21
Kd [42]: 0.083 nM
koff [42]: 9.4e-05 s⁻¹
kon [42]: 1.1e+06 M⁻¹ s⁻¹
Counts [43]: 12300
SBR [43]: 724
Counts [44]: 5.2e+07
SBR [44]: 27
Counts [45]: 36900
SBR [45]: 2170
Counts [46]: 29800
SBR [46]: 1750
Counts [47]: 39600
SBR [47]: 2330
Counts [48]: 1.43e+07
SBR [48]: 7
Kd [49]: > 0.05 nM
Counts [50]: 4.66e+07
SBR [50]: 24
Counts [51]: 96.6
SBR [51]: 5.7
Counts [52]: 1.84e+06
SBR [52]: 1
Substance: affinity-purified polyclonal anti-MIF antibody (R&D Systems AF-289-PB)

Source: patent publication US20190360025A1
